Assay results: FireProtDB

Conditions: Bombyx mori, whole UniProt chain shown; for Tm / unfolding enthalpy (calorimetric) / unfolding enthalpy (van 't Hoff): Thermal, DSC
[1] = pH 3.5, sodium acetate buffer 50 mM
[2] = pH 4, sodium acetate buffer 50 mM
[3] = pH 4.5, sodium acetate buffer 50 mM
[4] = pH 5, sodium acetate buffer 50 mM
[5] = pH 8, 25 °C, GdnHCl, CD, Tris-HCl 50 mM

B1: Lysozyme wild type, P48816 (protein)
chain: MQKLIIFALVVLCVGSEAKTFTRCGLVHELRKHGFEENLMRNWVCLVEHESSRDTSKTNTNRNGSKDYGLFQINDRYWCSKGASPGKDCNVKCSDLLTDDITKAAKCAKKIYKRHRFDAWYGWKNHCQGSLPDISSC
**Q.** With B1 as the protein, how does the Tm (pH 3, glycine-HCl 50 mM) read?
**A.** The Tm was 45.2 °C.

**Q.** What about the “unfolding enthalpy (calorimetric)” value (pH 3, glycine-HCl 50 mM) of the same protein?
**A.** Its value is 77.6 kcal/mol.

**Q.** And the “unfolding enthalpy (van 't Hoff)” value (pH 3, glycine-HCl 50 mM)?
**A.** Its value is 80.9 kcal/mol.

**Q.** And the Tm (pH 3.25, glycine-HCl 50 mM)?
**A.** Its Tm is 51 °C.

**Q.** And the “unfolding enthalpy (calorimetric)” value (pH 3.25, glycine-HCl 50 mM)?
**A.** Its value is 81.5 kcal/mol.

**Q.** And the “unfolding enthalpy (van 't Hoff)” value (pH 3.25, glycine-HCl 50 mM)?
**A.** The value was 86.7 kcal/mol.

**Q.** And the Tm [1]?
**A.** The Tm was 56 °C.

**Q.** And the “unfolding enthalpy (calorimetric)” value [1]?
**A.** The value was 88.5 kcal/mol.

**Q.** And the “unfolding enthalpy (van 't Hoff)” value [1]?
**A.** Its value is 91.4 kcal/mol.

**Q.** What about the Tm [2] of the same protein?
**A.** Its Tm is 59.3 °C.

**Q.** What about the “unfolding enthalpy (calorimetric)” value [2] of the same protein?
**A.** Its value is 91.9 kcal/mol.

**Q.** And the “unfolding enthalpy (van 't Hoff)” value [2]?
**A.** Its value is 92.4 kcal/mol.

**Q.** What about the Tm [3] of the same protein?
**A.** The Tm was 62.8 °C.

**Q.** What about the “unfolding enthalpy (calorimetric)” value [3] of the same protein?
**A.** Its value is 94.1 kcal/mol.

**Q.** What about the “unfolding enthalpy (van 't Hoff)” value [3] of the same protein?
**A.** Its value is 93.8 kcal/mol.

**Q.** And the Tm [4]?
**A.** Its Tm is 65.3 °C.

**Q.** And the “unfolding enthalpy (calorimetric)” value [4]?
**A.** The value was 99.7 kcal/mol.

**Q.** What about the “unfolding enthalpy (van 't Hoff)” value [4] of the same protein?
**A.** The value was 95.1 kcal/mol.

**Q.** What about the denaturant m value [5] of the same protein?
**A.** The denaturant m value was 3.4 kcal/mol/M.

**Q.** What about the “denaturant midpoint (higher = more stable)” value [5] of the same protein?
**A.** Its value is 2.39 M.

**Q.** And the unfolding free energy [5]?
**A.** The unfolding free energy was 8.1 kcal/mol.
